Assay results: patent US20120266264A1 (VANCOUVER BIOTECH, published 2012)
Values belong to the binder of their own block, whether it stands above or below them.

B1: synthetic peptide corresponding to the N-terminal 1-29 amino acid residues of human GnRH receptor (peptide)
peptide: MANSASPEQNQNHCSAINNSIPLMQGNLP
notes: Custom synthesized; also called 1-29 synthetic peptide; 1-29 peptide
B2: GHR-106 monoclonal antibody (antibody, V domains shown)
VH: QVQLKESGPGLVAPSQSLSITCTVSGFSLSRYSVHWVRQPPGKGLEWLGMIWGGGSTDYNSALKSRLSISKDNSKSQVFLKMNSLQTDDTAMYYCARGNDGYYSFAYWGQGTLVTVSS
VL: DIVMSQSPSSLAVSAGEKVTMSCKSSQSLLNSRTRKNYLAWYQQKPGQSPKLLIYWASTRESGVPDRFTGSGSGTDFTLTISSVQAEDLAVYYCKQSYNLYTFGGGTKLEIK
notes: Murine hybridoma monoclonal antibody raised against the KLH-coupled 1-29 peptide of human GnRH receptor; detected with goat anti-mouse IgG; also called ATCC PTA-10252

Tests used:
[1] = target: B2; test: competition cell ELISA, free peptide against GHR-106 on OC-3-VGH cells (FIG. 3B)
[2] = target: B1; test: ELISA on coated peptide
human GnRH receptor = target: T1, human GnRH receptor (human, UniProt P30968 1-328); test: ELISA, microwells coated with 1-29 synthetic peptide or OC-3-VGH cancer cells, AP-labeled goat anti-mouse IgG
T1 construct: whole, on cells; Endogenous receptor on human cancer cell lines; also called GnRHR1; gonadotropin releasing hormone receptor
T1 sequence (looked up): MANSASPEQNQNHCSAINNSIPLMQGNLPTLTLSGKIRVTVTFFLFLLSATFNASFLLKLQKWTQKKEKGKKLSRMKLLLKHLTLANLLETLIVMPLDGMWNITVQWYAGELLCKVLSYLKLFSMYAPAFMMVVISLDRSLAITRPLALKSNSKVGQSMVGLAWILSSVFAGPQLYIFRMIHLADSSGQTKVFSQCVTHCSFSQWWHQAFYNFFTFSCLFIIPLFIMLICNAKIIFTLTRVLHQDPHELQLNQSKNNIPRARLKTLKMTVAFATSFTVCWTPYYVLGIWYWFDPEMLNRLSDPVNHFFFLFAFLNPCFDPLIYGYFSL

[3] = target: B1; test: ELISA on coated peptide (FIG. 2A)

Binder: B1
- binding result [1]: binds

Binder: B2
- binding result [2]: binds
- Kd (human GnRH receptor): 2 nM

- binding result [3]: binds
B3: GHR-103 monoclonal antibody (antibody, V domains shown)
VH: QVQLKESGPGLVAPSQSLSITCTVSGFSLSRYSVHWVRQPPGKGLEWLGMIWGGGSTDYNSALKSRLSISKDNSKSQVFLKMNSLQTDDTAMYYCARGNDGYYSFAYWGQGTLVTVSS
VL: DIVMSQSPSSLAVSAGEKVTMSCKSSQSLLNSRTRKNYLAWYQQKPGQSPKLLIYWASTRESGVPDRFTGSGSGTDFTLTISSVQAEDLAVYYCKQSYNLYTFGGGTKLEIK
notes: Murine monoclonal
